# Results from patent publication US20180273970A1, “PLASMID, TRANSFORMED PLANT CELL AND TRANSGENIC PLANT COMPRISING THE SAME, AND METHODS FOR PREPARING A TRANSGENIC PLANT AND FOR INCREASING YIELD OF A PLANT UNDER ABIOTIC STRESSES” (Academia Sinica, priority 2014, published 2018).
# T1: GAD-SnRK1A (full-length SnRK1A 1-505 fused to the Gal4 activation domain) (rice, UniProt Q852Q2 1-505)
# T1 construct: range 1-505
# T1 sequence (looked up): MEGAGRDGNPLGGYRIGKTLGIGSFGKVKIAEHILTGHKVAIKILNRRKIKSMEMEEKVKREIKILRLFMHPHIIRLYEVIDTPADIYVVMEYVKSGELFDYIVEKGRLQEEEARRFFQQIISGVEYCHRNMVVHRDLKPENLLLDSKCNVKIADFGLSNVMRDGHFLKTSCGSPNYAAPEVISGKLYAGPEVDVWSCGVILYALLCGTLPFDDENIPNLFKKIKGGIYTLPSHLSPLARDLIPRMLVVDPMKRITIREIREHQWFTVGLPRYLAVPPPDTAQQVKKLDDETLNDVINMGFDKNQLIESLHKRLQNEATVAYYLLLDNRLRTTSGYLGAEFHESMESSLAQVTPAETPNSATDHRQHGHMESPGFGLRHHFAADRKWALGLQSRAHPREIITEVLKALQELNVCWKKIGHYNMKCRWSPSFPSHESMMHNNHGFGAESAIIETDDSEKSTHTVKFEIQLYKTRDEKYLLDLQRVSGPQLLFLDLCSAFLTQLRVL
# Experiments:
# [1] = test system: SKIN1; assay: Quantitative RT-PCR of SKIN1 mRNA in leaves of 2-week-old rice seedlings after stress or ABA; assay type: in vivo; conditions: 6 h after salt stress (200 mM NaCl)
# Protocol: FIG. 9. The expression of SKIN is induced by various abiotic stresses and ABA, and SKINs promote the ABA sensitivity. (A) Total RNA was purified from leaves of 2-week-old rice seedlings that had been air dried, treated with 200 mM salt, incubated at 4° C., or treated with 1 μM ABA, or from embryos of seedlings grown underwater (hypoxia), for various lengths of time. RNAs were subjected to quantitative RT-PCR analysis using primers specific for SKIN1 and SKIN2. The highest mRNA level was set as 100%. The lowest mRNA level was assigned a value of 1× and mRNA levels of other samples were calculated relative to this value. Error bars indicate the SE for three replicate experiments. (B) Seeds of transgenic lines SKIN1-Ox(O3), SKIN1-Ri(R3), SKIN2-Ox(02) and SKIN2-Ri(R1) were germinated and grown in water containing various concentrations of ABA at 28° C. under a 14-h light/10-h dark cycle for 6 days. Lengths of shoots were measured. Error bars represent SE (n=8) at significance levels: * p<0.1, ** p<0.05. […]
# Total RNA was extracted from leaves of rice seedlings with the Trizol reagent (Invitrogen) and treated with RNase-free DNase I (Promega, Madison, Wis.). […] The quantitative variation between different samples was evaluated by the delta-delta CT method, and the amplification of 18S ribosomal RNA was used as an internal control to normalize all data.
# [2] = test system: αAmy3 SRC promoter; assay: Rice embryo transient expression assay, SRC-35Smp:Luc reporter (luciferase); assay type: cell-based; conditions: 24 h; for Antagonism of SnRK1A function on αAmy3 SRC promoter: co-transfected with Ubi:SnRK1A, +S or −S
# Protocol: FIG. 3. The highly conserved GKSKSF domain (KSD) is essential for SKINs to antagonize the function of SnRK1A. Rice embryos were transfected with plasmids, incubated in medium with 100 mM glucose (+S) or without glucose (−S) for 24 h, and assayed for luciferase activity. The luciferase activity in rice embryos bombarded with the SRC-35S mp-Luc construct only and in +S medium was set to 1×, and other values were calculated relative to this value. Error bars indicate the SE for three replicate experiments. (A) Plasmid constructs. (B) Rice embryos were co-transfected with effector Ubi:SnRK1A, Ubi:SKIN1 or Ubi:SKIN(Ri) alone and reporter SRC-35Smp:Luc, or co-transfected with effectors Ubi:SnRK1A and Ubi:SKIN or Ubi:SKIN(Ri) and reporter SRC-35Smp:Luc. (C) Total cellular proteins were extracted from rice embryos transfected with Ubi:SnRK1A, Ubi:SKIN or Ubi:SnRK1A and Ubi:SKIN by particle bombardment and subjected to Western blot analysis using antibodies against SnRK1A and the HA tag fused to at the N-terminus of SKINs. (D) Rice embryos were co-transfected with effectors Ubi:SnRK1A and Ubi:SKIN1 (wild-type or truncated) and reporter SRC-35Smp:Luc. (E) Rice embryos were co-transfected with effectors Ubi:SnRK1A and Ubi:SKIN (wild-type, KSD deleted, or KSD replaced with 6 Ala) and reporter SRC-35Smp:Luc.
# (§1) FIG. 21. ABA and sorbitol suppress the function of SnRK1A in activation of αAmy3 SRC promoter. Rice embryos and barley aleurones were transfected with reporter SRC-35Smp:Luc with or without effectors, incubated with or without ABA for 24 h, and assayed for luciferase activity. The luciferase activity in embryos or aleurones bombarded with the SRC-35S mp-Luc construct only and in +S medium was set to 1×, and other values were calculated relative to this value. Error bars indicate the SE for three replicate experiments. (A) Plasmid constructs. (B) Barley aleurones were transfected with effector Ubi:SnRK1A, Ubi:SKIN1 or Ubi:SKIN(Ri) alone and reporter SRC-35Smp:Luc, or co-transfected with effectors Ubi:SnRK1A and Ubi:SKIN or Ubi:SKIN(Ri) and reporter SRC-35Smp:Luc. (C) Rice embryos (upper panel) were transfected with or without Ubi:SnRK1A and incubated with or without 1 μM ABA or 50 mM sorbitol, and barley aleurones (lower panel) were transfected with or without Ubi:SnRK1A and incubated with 5 μM ABA or 400 mM sorbitol.
# Rice embryos were prepared for particle bombardment as described (Chen et al., 2006). The rice embryos were bombarded with reporter, effectors and internal control at a ratio of 4:2:1 for single effector or 4:2:2:1 for two effectors. The internal control (Ubi::GUS) was used to normalize the reporter enzyme activity because different transformation efficiency might occur in each independent experiment. Bombarded rice embryos were divided into two halves, with half being incubated in MS liquid medium containing 100 mM Glc, and the other half grown in MS liquid containing 100 mM mannitol, for 24 h. Total proteins were extracted for embryos with a cell lysis buffer [0.1 M K-phosphate, pH 7.8, 1 mM EDTA, 10% glycerol, 1% triton X-100, and 7 mM β-mercaptoethanol]. GUS assay buffer [0.1 M Na-phosphate, 20 mM EDTA, 0.2% sarcosine, 0.2% Triton X-100, and 20 mM β-mercaptoethanol] was used for GUS activity assay. The activity assay of GUS and luciferase were described elsewhere (Lu et al., 1998). All bombardments were repeated at least three times.
# [3] = test system: αAmy3 SRC promoter; assay: Barley aleurone transient expression assay, SRC-35Smp:Luc reporter (luciferase); assay type: cell-based; conditions: barley aleurones, 5 μM ABA or 400 mM sorbitol, 24 h
# Protocol: as §1
# The barley aleurone/endosperm transient expression assays were performed as described (Hong et al., 2012). Each independent experiment consisted of three replicates, with six endosperms for each treatment, and was repeated three times with similar results. Luciferase and GUS activity assays were performed as described (Hong et al., 2012). […]
# [4] = target: T1, GAD-SnRK1A (full-length SnRK1A 1-505 …); assay: yeast two-hybrid, GBD-SKIN1 truncation with GAD-SnRK1A
# From the text: FIG. 14. The N-terminal amino acids 1-83 of SKIN1 interact with the kinase and autoinhibitory domains of SnRK1A in yeast. (A) Plasmid constructs ADH1:GAD-SnRK1A and ADH1:GBD-SKIN1 (wild type or deletion at N- or C-terminus) were used as effectors, and Mel1:LacZ, Mel1:Mel1 and Gal1:HIS3 were used as reporters. (B) The N-terminus of SKIN1 interacts with SnRK1A in the yeast two-hybrid assays. (C) The kinase domain (KD) and auto-inhibitory domain (AID) of SnRK1A interact with SKIN1 and SKIN2. Yeast strain AH109 containing GAD-SnRK1A or GAD alone (-) was mated with yeast strain Y187 containing various GBD-SKIN1 constructs or GBD alone (-). The interaction between p53 and large T-antigen (T-Ag) was used as a positive control.
molecule,measurement,setting,value
"[Cl-].[Na+] [salt, NaCl]",Induction of SKIN1 mRNA accumulation,[1],≤ 2.3 fold
OC[C@@H](O)[C@@H](O)[C@H](O)[C@@H](O)CO [sorbitol],"Effect on αAmy3 SRC promoter (luciferase activity), alone and SnRK1A-activated","[2]; rice embryos, 1 μM ABA or 50 mM sorbitol",suppressed
same,"Effect on αAmy3 SRC promoter (luciferase activity), alone and SnRK1A-activated",[3],suppressed
"SnRK1A: rice Snf1-related protein kinase 1A, overexpressed from Ubi:SnRK1A effector (protein, left off: large carriers) MEGAGRDGNPLGGYRIGKTLGIGSFGKVKIAEHILTGHKVAIKILNRRKIKSMEMEEKVKREIKILRLFMHPHIIRLYEVIDTPADIYVVMEYVKSGELFDYIVEKGRLQEEEARRFFQQIISGVEYCHRNMVVHRDLKPENLLLDSKCNVKIADFGLSNVMRDGHFLKTSCGSPNYAAPEVISGKLYAGPEVDVWSCGVILYALLCGTLPFDDENIPNLFKKIKGGIYTLPSHLSPLARDLIPRMLVVDPMKRITIREIREHQWFTVGLPRYLAVPPPDTAQQVKKLDDETLNDVINMGFDKNQLIESLHKRLQNEATVAYYLLLDNRLRTTSGYLGAEFHESMESSLAQVTPAETPNSATDHRQHGHMESPGFGLRHHFAADRKWALGLQSRAHPREIITEVLKALQELNVCWKKIGHYNMKCRWSPSFPSHESMMHNNHGFGAESAIIETDDSEKSTHTVKFEIQLYKTRDEKYLLDLQRVSGPQLLFLDLCSAFLTQLRVL",αAmy3 SRC promoter activity on overexpression of the effector,[2]; 100 mM glucose (+S) or without glucose (−S),enhanced
GBD-SKIN1 160-259 (other) MKLLSSIEQACDICRLKKLKCSKEKPKCAKCLKNNWECRYSPKTKRSPLTRAHLTEVESRLERLEQLFLLIFPREDLDMILKMDSLQDIKALLTGLFVQDNVNKDAVTDRLASVETDMPLTLRQHRISATSSSEESSNKGQRQLTVSRRASCSSLATATYLPPLLAPDHAVAEGDEGEEEDDDSDDDERQHRGKNGGRRESAAPPLPLPPPRLTLHTQMGGMVRRNGTFRSPRSLSLSDLQNSGGSC,Antagonism of SnRK1A function on αAmy3 SRC promoter,[2],did not antagonize
same,binding result,[4],no binding
SKIN1(1-83): truncated SKIN1 containing amino acids 1-83 (protein) MKLLSSIEQACDICRLKKLKCSKEKPKCAKCLKNNWECRYSPKTKRSPLTRAHLTEVESRLERLEQLFLLIFPREDLDMILKMDSLQDIKALLTGLFVQDNVNKDAVTDRLASVETDMPLTLRQHRISATSSSEESSNKGQRQLTVSMSTAVADVPPAAAYGFPGSAKRGKPEEVVVLMGKRRNEGFFIEEEEEEEEVLTESSSIGAPSPASSSIGENSGEEEGGDDEEE,Antagonism of SnRK1A function on αAmy3 SRC promoter,[2],did not antagonize
GBD-SKIN1 84-259 (other) MKLLSSIEQACDICRLKKLKCSKEKPKCAKCLKNNWECRYSPKTKRSPLTRAHLTEVESRLERLEQLFLLIFPREDLDMILKMDSLQDIKALLTGLFVQDNVNKDAVTDRLASVETDMPLTLRQHRISATSSSEESSNKGQRQLTVSVESKLKAEDEQVGLGCLDALEESLPIKRGLSNFYAGKSKSFTSLAEATASPAAAANELAKPENPFNKRRRILATWSRRASCSSLATATYLPPLLAPDHAVAEGDEGEEEDDDSDDDERQHRGKNGGRRESAAPPLPLPPPRLTLHTQMGGMVRRNGTFRSPRSLSLSDLQNSGGSC,binding result,[4],no binding
GBD-SKIN1 84-159 (other) MKLLSSIEQACDICRLKKLKCSKEKPKCAKCLKNNWECRYSPKTKRSPLTRAHLTEVESRLERLEQLFLLIFPREDLDMILKMDSLQDIKALLTGLFVQDNVNKDAVTDRLASVETDMPLTLRQHRISATSSSEESSNKGQRQLTVSVESKLKAEDEQVGLGCLDALEESLPIKRGLSNFYAGKSKSFTSLAEATASPAAAANELAKPENPFNKRRRILATWS,binding result,[4],no binding
